Data taken from the supplement of paper PMC7125110.
± gives the standard error. Variants at the floor of the assay were thinned out.

B1: glmS ribozyme (parent)
chain: AUAAAAGCGCCAGAACUACAGAAAUGUAGUUGACGAGGAGGAGGUUUAUCGAAUUUUCGGCGGAUGCCUCCAAA

Columns and labels:
Conditions in all cases: with glucosamine-6-phosphate
glucosamine-6-phosphate [1] = variants of: B1; experiment: self-cleavage kobs at 640 uM GlcN6P; higher = faster cleavage; RNA array
How it was run: (§1)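 Glucosamine-6-phosphate in HEPES/KCl/Mg(OAc)2 buffer, at 40 μM to 10 mM, was flowed over barcoded ribozyme variants transcribed in situ by E. coli RNA polymerase on sequenced MiSeq chips. Tracking was through a hybridised Cy3 probe at 37 °C. kobs, kcat and KM came from exponential decay fits and weighted Michaelis–Menten fits of normalised per-tile medians.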

glucosamine-6-phosphate [2] = variants of: B1; experiment: self-cleavage kobs at 2500 uM GlcN6P; higher = faster cleavage; RNA array
How it was run: as §1

glucosamine-6-phosphate [3] = variants of: B1; experiment: self-cleavage kobs at 10000 uM GlcN6P; higher = faster cleavage; RNA array
How it was run: as §1

Variant	self-cleavage kobs at 640 uM GlcN6P (glucosamine-6-phosphate [1])	self-cleavage kobs at 2500 uM GlcN6P (glucosamine-6-phosphate [2])	self-cleavage kobs at 10000 uM GlcN6P (glucosamine-6-phosphate [3])
A33C G66C	< 1e-05 s⁻¹		
G32C G35A A64C C70A	< 1e-05 s⁻¹	< 1e-05 s⁻¹	
A33G A39G G41A	< 1e-05 s⁻¹		
G29C G40A G44U A64G	< 1e-05 s⁻¹	< 1e-05 s⁻¹	
G29C U56A C71A	4.27e-05 ± 1.8e-05 s⁻¹		
C16G G63U	< 1e-05 s⁻¹	< 1e-05 s⁻¹	< 1e-05 s⁻¹
U31A U54A C68A	6.98e-05 ± 2.6e-05 s⁻¹		
A33C G41U U47G U65C C68A	< 1e-05 s⁻¹		
C16U U57G C68U	3.89e-05 ± 1.6e-05 s⁻¹		
C16G G51A A64U	< 1e-05 s⁻¹		
G29U A36C G44U	< 1e-05 s⁻¹		< 1e-05 s⁻¹
G32U A33G	< 1e-05 s⁻¹		
C34G G44U C50U C71U	< 1e-05 s⁻¹	< 1e-05 s⁻¹	
G29U U47A A64U	< 1e-05 s⁻¹		
G35A A48C U54A C70A	< 1e-05 s⁻¹		< 1e-05 s⁻¹
A33C A48C	< 1e-05 s⁻¹	< 1e-05 s⁻¹	
G35C A52U C67U C68A	< 1e-05 s⁻¹		
U31G G62A	< 1e-05 s⁻¹		
C34U G44C G63U A64C	< 1e-05 s⁻¹		
A33G G43U G59U A64G	< 1e-05 s⁻¹	< 1e-05 s⁻¹	
C34U G44A A48U U56A G60A	< 1e-05 s⁻¹		
G29A C50G C71A	0.000129 ± 3.4e-05 s⁻¹	0.000111 ± 2.3e-05 s⁻¹	

Variant	self-cleavage kobs at 640 uM GlcN6P (glucosamine-6-phosphate [1])	self-cleavage kobs at 2500 uM GlcN6P (glucosamine-6-phosphate [2])	self-cleavage kobs at 10000 uM GlcN6P (glucosamine-6-phosphate [3])
G32A U49C C50G	< 1e-05 s⁻¹		
A33G C34U G40A A42U C68A	< 1e-05 s⁻¹	< 1e-05 s⁻¹	
G29C U30G C70U	0.000861 ± 0.00017 s⁻¹		
G32U G38C C68U	< 1e-05 s⁻¹		
G35A G40U C68U	< 1e-05 s⁻¹		
C34U U69G C71U	0.000948 ± 0.00043 s⁻¹	6.74e-05 ± 3.3e-05 s⁻¹	
C16U G60U C68A	< 1e-05 s⁻¹		
G35A G38U A42C U55C	< 1e-05 s⁻¹		
C16U U55A C68U	0.000364 ± 0.00011 s⁻¹	0.00062 ± 0.00021 s⁻¹	
C16U U55A C68G	8.37e-05 ± 1.4e-05 s⁻¹	3.34e-05 ± 1e-05 s⁻¹	7.42e-05 ± 1.8e-05 s⁻¹
U31G G41U U47G	7.13e-05 ± 2e-05 s⁻¹	0.000232 ± 5.7e-05 s⁻¹	
G29U G32U G44C U65C	< 1e-05 s⁻¹		
C19A A48U	6.44e-05 ± 2.3e-05 s⁻¹		
U31A A33U G44U U69C	< 1e-05 s⁻¹		
G29C C70G	8e-05 ± 1.4e-05 s⁻¹	2.33e-05 ± 8.6e-06 s⁻¹	4e-05 ± 1.4e-05 s⁻¹
A33U G44U A48C	< 1e-05 s⁻¹		
G29U A33U G44U A52U	< 1e-05 s⁻¹		
U30A G37A U56A	5.62e-05 ± 1.7e-05 s⁻¹		
C34U U46G C68G	0.000568 ± 0.00025 s⁻¹	< 1e-05 s⁻¹	
C16A U56G U65G	5.32e-05 ± 2.4e-05 s⁻¹	0.000165 ± 5.6e-05 s⁻¹	
A33U G41A G44A A64U	< 1e-05 s⁻¹	< 1e-05 s⁻¹	< 1e-05 s⁻¹
G32A C58G C68U	5.31e-05 ± 2.4e-05 s⁻¹	8.37e-05 ± 2.3e-05 s⁻¹	

Variant	self-cleavage kobs at 640 uM GlcN6P (glucosamine-6-phosphate [1])	self-cleavage kobs at 2500 uM GlcN6P (glucosamine-6-phosphate [2])	self-cleavage kobs at 10000 uM GlcN6P (glucosamine-6-phosphate [3])
U30G A33C G40C U54A A64C	< 1e-05 s⁻¹	< 1e-05 s⁻¹	
A24C U47G C67A	0.000315 ± 7.3e-05 s⁻¹	0.000647 ± 0.00024 s⁻¹	
U31C G51C C71A	< 1e-05 s⁻¹		
C34G G44A U56C U57C	< 1e-05 s⁻¹		
A33U G43A A48U C61U C70U	< 1e-05 s⁻¹	< 1e-05 s⁻¹	
G29U A48U C61U	< 1e-05 s⁻¹		
U31C G66A C68A U69G	7.97e-05 ± 4e-05 s⁻¹	4.91e-05 ± 1.6e-05 s⁻¹	
U30G G40A U56G	6.26e-05 ± 2e-05 s⁻¹	0.00032 ± 7.3e-05 s⁻¹	
G32A G40U A48U	< 1e-05 s⁻¹		
C34U A64U G66C	< 1e-05 s⁻¹		
U31C A39C G51C	< 1e-05 s⁻¹		
G29U G41C A42U G63U	< 1e-05 s⁻¹		
A33G A52G U65G	< 1e-05 s⁻¹	< 1e-05 s⁻¹	
C34G A39C U46A	< 1e-05 s⁻¹		
G32U A33G G38A	< 1e-05 s⁻¹		
U30C U47G	6.62e-05 ± 2.2e-05 s⁻¹	3.09e-05 ± 1.1e-05 s⁻¹	2.83e-05 ± 6e-06 s⁻¹
U30A U31C G32A	6.3e-05 ± 1.6e-05 s⁻¹	0.000298 ± 5.8e-05 s⁻¹	
C34G G37A U45A C58A	< 1e-05 s⁻¹		
C34U C68U C70U	< 1e-05 s⁻¹		
C34U G43U A53G U55A A64U	< 1e-05 s⁻¹	< 1e-05 s⁻¹	
U30G A42U C50A G60U	< 1e-05 s⁻¹		
C16G A36G G40A G63U	< 1e-05 s⁻¹	< 1e-05 s⁻¹	

Variant	self-cleavage kobs at 640 uM GlcN6P (glucosamine-6-phosphate [1])	self-cleavage kobs at 2500 uM GlcN6P (glucosamine-6-phosphate [2])	self-cleavage kobs at 10000 uM GlcN6P (glucosamine-6-phosphate [3])
C16U G59C G62U	< 1e-05 s⁻¹		
G29U C34U C50G C70U	0.000136 ± 2.9e-05 s⁻¹	8.93e-05 ± 2.5e-05 s⁻¹	
G35A G51A C58U	< 1e-05 s⁻¹		
G32C G41A U46G C71U	< 1e-05 s⁻¹	< 1e-05 s⁻¹	
A15U U45C G66U C67G	7.69e-05 ± 2.9e-05 s⁻¹	0.000193 ± 5.8e-05 s⁻¹	
A15U G41C G44U A48U U49A G51U C67U	< 1e-05 s⁻¹		
G29U A36U A39G G60A	< 1e-05 s⁻¹		
A15U G38U G40C A52U C58U C61G	< 1e-05 s⁻¹		
U30G U55G C68U	0.000548 ± 0.00014 s⁻¹	7.82e-05 ± 2.1e-05 s⁻¹	
C16A U30G U45G G60A G66U	< 1e-05 s⁻¹		
A33G A36C U54C	< 1e-05 s⁻¹	< 1e-05 s⁻¹	< 1e-05 s⁻¹
A15U U45C C50G U69G	< 1e-05 s⁻¹	< 1e-05 s⁻¹	
U30A C34U G41C G51A	< 1e-05 s⁻¹		
G32A G43A U57G	< 1e-05 s⁻¹		
A23C U69A	0.000292 ± 0.0001 s⁻¹	0.000135 ± 2.9e-05 s⁻¹	9.83e-05 ± 4.3e-05 s⁻¹
G29U G37A U49A C58G G62U	< 1e-05 s⁻¹		
U31C A53U C67U	0.000239 ± 6.6e-05 s⁻¹	0.00045 ± 9.3e-05 s⁻¹	
G35A U46C U65A	< 1e-05 s⁻¹		< 1e-05 s⁻¹
U31C G41A A48U C67G	< 1e-05 s⁻¹	< 1e-05 s⁻¹	
A15U U46G A53U C67U	6.64e-05 ± 1.4e-05 s⁻¹		
G29A A33G U69A	5.13e-05 ± 2.3e-05 s⁻¹	4.9e-05 ± 1.9e-05 s⁻¹	
C34A G38U U54A	< 1e-05 s⁻¹	< 1e-05 s⁻¹	

Variant	self-cleavage kobs at 640 uM GlcN6P (glucosamine-6-phosphate [1])	self-cleavage kobs at 2500 uM GlcN6P (glucosamine-6-phosphate [2])	self-cleavage kobs at 10000 uM GlcN6P (glucosamine-6-phosphate [3])
C16G G32U C61U	< 1e-05 s⁻¹	< 1e-05 s⁻¹	
U31C A33U A36U G38C C58U U65G G66C C71U	< 1e-05 s⁻¹	< 1e-05 s⁻¹	
U31A G35C G38U A48U U49G G63C	< 1e-05 s⁻¹	< 1e-05 s⁻¹	
U31G G32U A53U A64G	0.000197 ± 6.1e-05 s⁻¹		
U30G U46C U47G	8.33e-05 ± 2.2e-05 s⁻¹		
A15U U45A G66U	4.46e-05 ± 1.6e-05 s⁻¹		
G29U G37A C50G C68G	0.000384 ± 0.00016 s⁻¹	5.37e-05 ± 1.7e-05 s⁻¹	
C34A A39C G59C C61G	< 1e-05 s⁻¹	< 1e-05 s⁻¹	
G29C A36C C61A	< 1e-05 s⁻¹	< 1e-05 s⁻¹	
G32A A33G C50A	< 1e-05 s⁻¹		< 1e-05 s⁻¹
A33G G51A U55C C68A	< 1e-05 s⁻¹		
U31G G38A U57C C58U G66C	< 1e-05 s⁻¹		
A33C G35C U56C C67U	< 1e-05 s⁻¹		
U30G G37U U55C C58G	< 1e-05 s⁻¹		
C34G G51A C67U	< 1e-05 s⁻¹		
U31A A39C C50G C71A	< 1e-05 s⁻¹	< 1e-05 s⁻¹	< 1e-05 s⁻¹
G29A A52C U57G A64G C71A	< 1e-05 s⁻¹		
A15U G40C A52U	< 1e-05 s⁻¹		
U31G G37C U45G C70U	< 1e-05 s⁻¹	< 1e-05 s⁻¹	
U30G G32A C68U	7.55e-05 ± 3.7e-05 s⁻¹		
G32C G35U A52G	< 1e-05 s⁻¹	< 1e-05 s⁻¹	
C34G U57A	< 1e-05 s⁻¹		< 1e-05 s⁻¹

Variant	self-cleavage kobs at 640 uM GlcN6P (glucosamine-6-phosphate [1])	self-cleavage kobs at 2500 uM GlcN6P (glucosamine-6-phosphate [2])	self-cleavage kobs at 10000 uM GlcN6P (glucosamine-6-phosphate [3])
U30G A39U U65C	0.000103 ± 3.8e-05 s⁻¹		0.000419 ± 6.3e-05 s⁻¹
G35C A48G A53U U69C	< 1e-05 s⁻¹		
C16A G51U U69G	9.84e-05 ± 4.1e-05 s⁻¹	0.000199 ± 9.6e-05 s⁻¹	
G32U G59A A64U C67U	< 1e-05 s⁻¹	< 1e-05 s⁻¹	
G29A G43C A52C C61U	< 1e-05 s⁻¹	< 1e-05 s⁻¹	
G35C G37U A64G C68U	< 1e-05 s⁻¹		
C16U G32U C34G A53C	< 1e-05 s⁻¹	< 1e-05 s⁻¹	
U31C G38U A39C G43U G62A U69G	< 1e-05 s⁻¹		
G32A U65A C71U	5.38e-05 ± 1.4e-05 s⁻¹	9.54e-05 ± 2.4e-05 s⁻¹	
C34G A39U U49G	< 1e-05 s⁻¹		
G35C G38A A64G	< 1e-05 s⁻¹	< 1e-05 s⁻¹	
G21U C70G	0.000253 ± 5.1e-05 s⁻¹	0.000154 ± 3.9e-05 s⁻¹	9.23e-05 ± 2.3e-05 s⁻¹
U31A C58U U69G	0.000109 ± 4.2e-05 s⁻¹	7.72e-05 ± 2.2e-05 s⁻¹	
G35C A36C A42C G43C G51A	< 1e-05 s⁻¹	< 1e-05 s⁻¹	
U30A C70G C71U	5.91e-05 ± 2.5e-05 s⁻¹	8.51e-05 ± 2.9e-05 s⁻¹	
U31A U56G C58G	9.04e-05 ± 1.6e-05 s⁻¹	0.000252 ± 5e-05 s⁻¹	
U31G A36C U49G	8.9e-05 ± 1.7e-05 s⁻¹	0.000257 ± 4.5e-05 s⁻¹	0.000385 ± 6.8e-05 s⁻¹
U30G G37A	9.32e-05 ± 2.2e-05 s⁻¹	0.000172 ± 4.2e-05 s⁻¹	0.000734 ± 0.00011 s⁻¹
G32A A36C U55G C67G C68G	0.000126 ± 3.4e-05 s⁻¹	4.75e-05 ± 1.2e-05 s⁻¹	
C16G U45C U54A C70U	6.18e-05 ± 2.7e-05 s⁻¹		
C16G G44U G51U C61U	< 1e-05 s⁻¹	< 1e-05 s⁻¹	
